{
  "source": "patent US20040137592",
  "key": {"HA tagged hUpf1/SMG-2": {"molecular_target": "HA tagged hUpf1/SMG-2 (UniProt Q92900)"}, "[1]": {"test_system": "GST fusion protein including S1078 (14mer peptide of hUpf1/SMG-2) [GST: P08515]"}, "[2]": {"test_system": "hUpf1/SMG-2 fusion protein (S1096) [GST: P08515]"}, "[3]": {"molecular_target": "MBP fusion protein of the hUpf1/SMG-2 partial fragment at the C-terminal side (UniProt Q92900)"}, "[4]": {"test_system": "fusion protein of the 14mer peptide (control) including S15 in the p53 protein and GST [GST: P08515]"}, "[5]": {"molecular_target": "MBP fusion protein of the hUpf1/SMG-2 partial fragment at the N-terminal side (UniProt Q92900)"}},
  "data": [
    {"substance": "6H-hSMG-1 (fusion protein of human SMG-1 partial fragment 107-3657 and His tag)", "values": [
      {"measurement": "phosphorylation of substrate (in vitro kinase assay, 32P autoradiography)", "setting": "HA tagged hUpf1/SMG-2", "value": "purified 6H-hSMG-1 phosphorylated HA-hUpf1/SMG-2"},
      {"measurement": "phosphorylation of substrate (in vitro kinase assay, 32P autoradiography)", "setting": "[1]", "value": "the GST fusion protein including S1078 or the GST fusion protein including S1096 ... was efficiently phosphorylated by 6H-hSMG-1"},
      {"measurement": "phosphorylation of substrate (in vitro kinase assay, 32P autoradiography)", "setting": "[2]", "value": "the GST fusion protein including S1078 or the GST fusion protein including S1096 ... was efficiently phosphorylated by 6H-hSMG-1"},
      {"measurement": "phosphorylation of substrate (in vitro kinase assay, 32P autoradiography)", "setting": "[3]", "value": "the fragments of hUpf1/SMG-2 at the C-terminal side and at the N-terminal side performed the role of good substrates for hSMG-1"},
      {"measurement": "phosphorylation of substrate (in vitro kinase assay, 32P autoradiography)", "setting": "[4]", "value": "the control construct encoding the SQ motif in the p53 protein was phosphorylated by hSMG-1"},
      {"measurement": "phosphorylation of substrate (in vitro kinase assay, 32P autoradiography)", "setting": "[5]", "value": "the fragments of hUpf1/SMG-2 at the C-terminal side and at the N-terminal side performed the role of good substrates for hSMG-1"}
    ]}
  ]
}
